Assay results as given in patent US20190010233A1.

How the values were obtained:
[1] = target: recombinant human PD-1^ECD-hFc protein (human) (UniProt Q15116); assay: ELISA, coated PD-1-hFc, 0.008 µg/mL
[2] = target: recombinant human PD-1^ECD-hFc protein (human) (UniProt Q15116); assay: ELISA, coated PD-1-hFc, 0.0001 µg/mL
[3] = target: recombinant human PD-1^ECD-hFc protein (human) (UniProt Q15116); assay: ELISA, coated PD-1-hFc, 1 µg/mL
[4] = target: recombinant human PD-1^ECD-hFc protein (human) (UniProt Q15116); assay: ELISA, coated PD-1-hFc, 0.0003 µg/mL
[5] = target: recombinant human PD-1^ECD-hFc protein (human) (UniProt Q15116); assay: ELISA, coated PD-1-hFc, 0.2 µg/mL
[6] = target: recombinant human PD-1^ECD-hFc protein (human) (UniProt Q15116); assay: ELISA, coated PD-1-hFc, 0.0016 µg/mL
[7] = target: recombinant human PD-1^ECD-hFc protein (human) (UniProt Q15116); assay: ELISA, coated PD-1-hFc, 0.00001 µg/mL
[8] = target: recombinant human PD-1^ECD-hFc protein (human) (UniProt Q15116); assay: ELISA, coated PD-1-hFc, 0.04 µg/mL

Sequence of recombinant human PD-1^ECD-hFc protein (human) (Q15116 25-167): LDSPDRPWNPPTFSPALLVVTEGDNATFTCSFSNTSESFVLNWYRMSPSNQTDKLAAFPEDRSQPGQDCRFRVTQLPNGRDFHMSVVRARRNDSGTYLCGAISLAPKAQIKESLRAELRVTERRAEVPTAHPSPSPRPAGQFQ

For “control protein (biotinylated non-PD-L1^ECD-hFc)”, the OD450 nm [1] was 0.135, the OD450 nm [2] was 0.12 and the OD450 nm [3] was 0.51. The OD450 nm [4] was 0.255, the OD450 nm [5] was 0.1 and the OD450 nm [6] was 0.19. For the same substance, the OD450 nm [7] was 0.09 and the OD450 nm [8] was 0.49.
